{"source": "patent US20250295111A1", "about": "“ANTIMICROBIAL PEPTIDES OF ACTI[…] METHODS OF USE THEREOF” (THE REGENTS OF THE UNIVERSITY OF CALIFORNIA, priority 2023, published 2025)", "test_system": "Saccharomyces cerevisiae", "assay": "Antimicrobial peptide inhibition assay (filter paper disk on YPD agar plate, zone of inhibition)", "assay_type": "cell-based", "conditions": "protein extract from recombinant E. coli BL21 (DE3) overexpressing the AMP, 6-mm filter paper disk on YPD agar plate, 30° C. for 24 h", "experimental": "A 102 amino acid AMP candidate from Streptosporangium becharense DSM 46887 (GenBank ID: MBB5817359.1) with a predicted molecular weight of 11.2 kDa, pI of 8.67 and charge of 3.5, was cloned in E. coli for functional validation. The sequence was codon optimized and sent to Twist Biosciences (San Francisco, CA) for synthesis and cloned into a pET-21 (+) expression vector. The plasmid DNA (pET-21 (+)_AMP_S.be) was then transferred into E. coli BL21 (DE3) strain with […] carbenicillin (MilliporeSigma, Burlington, MA) selection. To overexpress the short peptide, 100 mL of E. coli BL21 (DE3) harboring the recombinant plasmid was cultured in Luria-Bertani broth containing […] of carbenicillin at 37° C. until the mid-exponential phase. The overexpression was induced by addition of 0.1 mM isopropyl-b-D-thiogalactopyranoside (MilliporeSigma, Burlington, MA) at 25° C. and 120 rpm for 16 h. […]\nYeast Saccharomyces cerevisiae was used for the antimicrobial activity assessment with proteins extracted from the recombinant E. coli. […] After incubation at 30° C. for 24 h, the antimicrobial activity of the short peptide was determined by appearance of the zone of inhibition. To confirm the overexpression of the short peptide, the protein extract was analyzed using SDS-PAGE gel (12% Mini-PROTEAN_TGXTM Precast Gel, Bio-Rad Laboratories, Hercules, CA). […]", "data": [{"molecule": "AMP candidate from Streptosporangium becharense DSM 46887: 102 amino acid AMP candidate with signal peptide from Streptosporangium becharense DSM 46887, overexpressed in E. coli (protein, Streptosporangium becharense, 102 amino acid AMP candidate with signal peptide from Streptosporangium becharense DSM 46887, overexpressed in E. coli) MKRIFLVPALTAGIFALTTGAAYASQYIAYEGPGFTGRSVLIDACGPSNIPYHGSYKWYGDGQSGRMYNQPNAHGVMHFRLPSNNNAEQRTPVGWQSIFIEC", "values": [{"measurement": "antimicrobial activity determined by appearance of the zone of inhibition", "value": "Inhibition of Saccharomyces cerevisiae is demonstrated"}, {"measurement": "antimicrobial activity determined by appearance of the zone of inhibition", "setting": "listed as AMP candidate of Streptosporangium becharense DSM 46887", "value": "Inhibition of Saccharomyces cerevisiae"}]}]}
